Test results: publication PMC2063226, “High-affinity recombinant phage antibodies to the pan-carcinoma marker epithelial glycoprotein-2 for tumour targeting” (British Journal of Cancer, 1998)
Values belong to the molecule of their own block, whether it stands above or below them.

Legend:
[1] = molecular target: recombinant epithelial glycoprotein-2 (EGP-2) (human) (UniProt P16422); experiment: SPR; BIAcore; EGP-2 covalently coupled to a CM-5 sensorchip (350 RU, 'low-density' surface); antibody (at 200 nM) or antibody fragment flowed at 5 ul/min; koff fitted on t = 315-320 s (MOC-31 whole antibody: average of three fittings); kon from Ks against antibody concentration; room temperature; apparent values for the bivalent antibodies
[2] = molecular target: T1, recombinant epithelial glycoprotein-2 (EGP-2) (human, UniProt P16422); experiment: as above; conditions: both partners purified
T1 construct: epithelial glycoprotein-2 (EGP-2, Ep-CAM), human; recombinant, expressed in the baculovirus system as described by Strassburg et al 1992 and Helfrich et al 1994; also called CO17-1A antigen; KSA; source: baculovirus system, purified; gift of Professor D Herlyn (the Wistar Institute)

[3] = molecular target: T1, recombinant epithelial glycoprotein-2 …
Target sequence in this assay (P16422 24-265): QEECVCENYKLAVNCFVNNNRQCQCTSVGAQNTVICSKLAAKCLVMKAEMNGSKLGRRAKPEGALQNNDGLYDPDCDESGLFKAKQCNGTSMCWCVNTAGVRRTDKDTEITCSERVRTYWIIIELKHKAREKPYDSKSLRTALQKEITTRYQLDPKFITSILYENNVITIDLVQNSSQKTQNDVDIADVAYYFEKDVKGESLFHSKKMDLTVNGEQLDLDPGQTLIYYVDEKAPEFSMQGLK

[4] = molecular target: the molecule itself; experiment: SEC; gel filtration (Superdex column) of the IMAC-purified scFv preparations; monomeric and dimeric forms separated

Molecule: MOC-31 whole antibody
Ka [1]: 4.24e+08 M⁻¹ | koff [1]: 5e-05 s⁻¹ | kon [1]: 106000 M⁻¹ s⁻¹ | t1/2 [1]: 231 min

B1: 323/A3 antibody (antibody, V domains shown)
VH: QIQLVQSGPELKKPGETVKISCKASGYTFTNYGMNWVRQASGEGLKWMGWINTYTGEPTYGEDFKGRFAFSLETSASTAYLQINNLKNEDTATYFCARFGNYVDYWGQGTTLTVSS
VL: DIVMTQAAFSNPVTLGTSASISCRSSKNLLHSNGITYLYWYLQKPGQSPHLLIYQMSNLASGVPDRFSSSGSGTDFTLRISRVEAEDVGVYYCAQNLEIPRTFGGGTKLEIK
notes: CDR3 identical); Murine whole bivalent antibody; source: gift from Dr SO Warnaar (Centocor, Leiden); copies: 2 + 2
koff [2]: 0.00106 s⁻¹ | kon [2]: 251000 M⁻¹ s⁻¹ | t1/2 [2]: 10.9 min

B2: MOC-161 (antibody, V domains shown)
VH: QVQLQQSGTELIRPGTSVKISCKASGYAFTDYWLGWVKHRPGHGLEWIGDIYPGSDNTYYHEKFKGKATLTTDKSSSTAYMQLSSLTSEDSAVYFCARGLKGDYWGQGTTVTVSS
VL: DIQMTQSPSSLSAFSGGKVTITCKASQDIKKSIAWYQHKPGKGPRLLIHYTSTLQPGIPSRFSGSGSGEEYSFSISNLEPEDIATYYCQQYDNLRTFGGGTKLELK
binding result [3]: binds

B3: 17-1A antibody (antibody, V domains shown)
VH: QVQLQQSGAELVRPGTSVKVSCKASGYAFTNYLIEWVKQRPGQGLEWIGVINPGSGGTNYNEKFKGKATLTADKSSSTAYMQLSSLTSDDSAVYFCARDGPWFAYWGQGTLVTVSA
VL: NIVMTQSPKSMSMSVGERVTLTCKASENVVTYVSWYQQKPEQSPKLLIYGASNRYTGVPDRFTGSGSATDFTLTISSVQAEDLADYHCGQGYSYPYTFGGGTKLEIK
notes: Murine whole bivalent antibody; also called 17-lA; source: gift from Dr SO Warnaar (Centocor, Leiden); copies: 2 + 2
koff [2]: 0.0382 s⁻¹ | kon [2]: 595000 M⁻¹ s⁻¹ | t1/2 [2]: 0.3 min

Continued, in another order:

koff [2]: 0.0583 s⁻¹ | kon [2]: 1.09e+06 M⁻¹ s⁻¹ | t1/2 [2]: 0.2 min
B4: chimeric 17-1A (antibody, V domains shown)
VH: B3 VH
VL: B3 VL
notes: as the VH of m2 (17-1A); as the VL of m2 (17-1A); Whole bivalent antibody; also called chimeric version of 17-1A; source: gift from Dr SO Warnaar (Centocor, Leiden); copies: 2 + 2

koff [1]: 0.00034 s⁻¹ | t1/2 [1]: 34 min
B5: MOC-31 scFv (soluble) (scFv)
scFv: QVQLQQSGPELKKPGETVKISCKASGYTFTNYGMNWVKQAPGKGLKWMGWINTYTGESTYADDFKGRFAFSLETSASAAYLQINNLKNEDTATYFCARFAIKGDYWGQGTTVTVSSGGGGSGGGGSGGGGSDIVLTQSPFSNPVTLGTSASISCRSTKSLLHSNGITYLYWYLQKPGQSPQLLIYQMSNLASGVPDRFSSSGSGTDFTLRISRVEAEDVGVYYCAQNLEIPRTFGGGTKLEIKR
notes: 15-residue (Gly4Ser)3 linker, written out from the printed formula; The screening ELISA of the methods used clones in pCANTAB6 (His6 before c-myc); also called monovalent MOC-31 scFv; source: E. coli TG1, pUC119-polyHIS6myc, periplasm; purified (IMAC on Talon resin, gel filtration, monomer) for SPR; periplasmic preparation for immunohistochemistry; induced bacterial supernatant for ELISA; not …
binding result [4]: binds
